In a protein production outcome set (Wang et al. 2014):

Test: label from the status in PepcDB records

Row | Sequence | protein production
1 | NAVHFGAGNIGRGFIGKLLADAEVEVTFADVDVPLVDQLSHKQEYKVKVVGTECKIDTVTHVTAVNSASEDVIDRIVKTDLVTTAVGPNVLDIIAKTIAKGIAKRFEAGNDAPLNIIACENMVRGTTHLKGEVYKHLDKSLHAKADELVGFVDSAVDRIVPPAEAANDDPLEVTVESFSEWIVDEQQFKGDIPNIAGMEKTNN | not failed
2 | MSSAKSARYNRFSGGPANLPASDSSGTRMETTFGPTFSTVTTITKAADGTSTYKQHRRTPSSSSTLAYSPRDEEDGMPPINTPRRSDSAISVRSLHSESSMSLRSTFSLPEEEEEPEPLVFAEQPSVKLCCQLCCSVFKDPVITTCGHTFCRRCALKSEKCPVDNAKLTVVVNNIAVAEQIGELFIHCRHGCRAAGTGKPGVFEVDPRGCPFTIKLSARKDHESSCDYRPVRCPNNPSCPPLLKMNLEAHLKECEHIKCPHSKYGCTFIGNQDTYETHLETCRFEGLKEFLQQTDDRFHEMHVALAQKDQEIAFLRSMLGKLSEKIDQLEKSLELKFDVLDENQSKLSEDLMEFRRDASMLNDELSHINARLNMGILGSYDPQQIFKCKGTFVGHQGPVWCLCVYSMGDLLFSGSSDKTIKVWDTCTTYKCQKTLEGHDGIVLALCIQGCKLYSGSADCTIIVWDIQNLQKVNTIRAHDNPVCTLVSSHNMLFSGSLKAIKVWDIVGTELKLKKELTGLNHWVRALVAAQSYLYSGSYQTIKIWDIRTLDCIHVLQTSGGSVYSIAVTNHHIVCGTYENLIHVWDIESKEQVRTLTGHVGTVYALAVISTPDQTKVFSASYDRSLRVWSMDNMICTQTLLRHQGSVTALAVSRGRLFSGAVDSTVKVWTC | failed
3 | MALDSSGKQPEQQQQQQPRASSGNGEARLKLRRTPNEEHEPENYEDLPLDYSPSLFTSLERYLPEQLLNSTRIDKASFMRDLLLRYSPDTERVRVLRHKEYRDKIMSSYQRLHGEIYTLDPSSFFAPSFLGAFSRKSEPNFRSSMVESYPGIFTFEMFKPQFCEMLLAEVEHMEKWVYDSRSTIMRPNTMNNFGVVLDDFGFDSMLQKLVDDFISPIAQVLFPEVCGTSLDSHHGYIVEYGKDRDVDLGFHVDDSEVSLNVCLGKQFSGGELYFRGVRCDKHVNSDSTEKEVYDYSHVPGHAILHRGRHRHGARATTSGHRANLILWCRSSTFREMKNYQRDFSGWCGGCKLDKQRRQRDSINATKEILARKAAEKTLVELASKSCAE | failed
